B1: Ankyrin repeat and SOCS box protein 14, residues 532 to 572; numbered along this chain, A6NK59 (parent)
chain: RSLKHLCRLKIRKCMGRLHLRCPVFMSFLPLPNRLKAYVLY

± gives the uncertainty stated by the source.

This series covers variants of B1. Description: abundance fitness (aPCA) (normalised: wild type 0, dead -1); higher = more abundant; growth selection in yeast, the domain comes from the species named. The settings on record: Homo sapiens.
Regarding RSLKHLCRGKIRKCMGRLHLRCPVFMSFLPLPNRLKAYVLY [L9G], the abundance fitness is -0.084 ± 0.049.
As to RSLKHLCRIKIRKCMGRLHLRCPVFMSFLPLPNRLKAYVLY [L9I], the abundance fitness was determined as 0.08 ± 0.13.
Regarding RSLKHLCRAKIRKCMGRLHLRCPVFMSFLPLPNRLKAYVLY [L9A], the abundance fitness stood at 0.003 ± 0.049.
As for RSLKHLCRCKIRKCMGRLHLRCPVFMSFLPLPNRLKAYVLY [L9C], the abundance fitness came out at 0.119 ± 0.29.
As to RSLKHLCREKIRKCMGRLHLRCPVFMSFLPLPNRLKAYVLY [L9E], the abundance fitness was determined as 0.308 ± 0.076.
Take RSLKHLCRHKIRKCMGRLHLRCPVFMSFLPLPNRLKAYVLY [L9H]: the abundance fitness is -0.089 ± 0.072.
Take RSLKHLCRDKIRKCMGRLHLRCPVFMSFLPLPNRLKAYVLY [L9D]: the abundance fitness amounted to 0.13 ± 0.12.
On to RSLKHLCELKIRKCMGRLHLRCPVFMSFLPLPNRLKAYVLY [R8E], for which the abundance fitness was -0.092 ± 0.062.
Turning to RSLKHLCALKIRKCMGRLHLRCPVFMSFLPLPNRLKAYVLY [R8A], the abundance fitness came out at 0.104 ± 0.045.
RSLKHLCQLKIRKCMGRLHLRCPVFMSFLPLPNRLKAYVLY [R8Q]: the abundance fitness was -0.048 ± 0.091.
On to RSLKHLCTLKIRKCMGRLHLRCPVFMSFLPLPNRLKAYVLY [R8T], for which the abundance fitness came to 0.005 ± 0.062.
The same measure for RSLKHLCLLKIRKCMGRLHLRCPVFMSFLPLPNRLKAYVLY [R8L]: 0.07 ± 0.063.
RSLKHLCGLKIRKCMGRLHLRCPVFMSFLPLPNRLKAYVLY [R8G]: the abundance fitness is -0.004 ± 0.049.
For the variant RSLKHLCSLKIRKCMGRLHLRCPVFMSFLPLPNRLKAYVLY [R8S], the abundance fitness was -0.132 ± 0.089.
For the variant RSLKHLCVLKIRKCMGRLHLRCPVFMSFLPLPNRLKAYVLY [R8V], the abundance fitness amounted to 0.057 ± 0.053.
For the variant RSLKHLCPLKIRKCMGRLHLRCPVFMSFLPLPNRLKAYVLY [R8P], the abundance fitness came to 0.076 ± 0.074.
As for RSLKHLCWLKIRKCMGRLHLRCPVFMSFLPLPNRLKAYVLY [R8W], the abundance fitness came out at 0.4 ± 0.053.
For the variant RSLKHLCYLKIRKCMGRLHLRCPVFMSFLPLPNRLKAYVLY [R8Y], the abundance fitness came out at 0.329 ± 0.15.
The same measure for RSLKHLCKLKIRKCMGRLHLRCPVFMSFLPLPNRLKAYVLY [R8K]: 0.118 ± 0.072; for RSLKHLCCLKIRKCMGRLHLRCPVFMSFLPLPNRLKAYVLY [R8C]: 0.006 ± 0.14; for RSLKHLWRLKIRKCMGRLHLRCPVFMSFLPLPNRLKAYVLY [C7W]: 0.099 ± 0.064.
For the variant RSLKHLGRLKIRKCMGRLHLRCPVFMSFLPLPNRLKAYVLY [C7G], the abundance fitness was -0.291 ± 0.049.
On to RSLKHLHRLKIRKCMGRLHLRCPVFMSFLPLPNRLKAYVLY [C7H], for which the abundance fitness was -0.631 ± 0.12.
RSLKHLNRLKIRKCMGRLHLRCPVFMSFLPLPNRLKAYVLY [C7N]: the abundance fitness is -0.414 ± 0.29.
The same measure for RSLKHLMRLKIRKCMGRLHLRCPVFMSFLPLPNRLKAYVLY [C7M]: 0.24 ± 0.075; for RSLKHLRRLKIRKCMGRLHLRCPVFMSFLPLPNRLKAYVLY [C7R]: -0.871 ± 0.074; for RSLKHLARLKIRKCMGRLHLRCPVFMSFLPLPNRLKAYVLY [C7A]: 0.063 ± 0.048.
On to RSLKHLTRLKIRKCMGRLHLRCPVFMSFLPLPNRLKAYVLY [C7T], for which the abundance fitness is -0.217 ± 0.056.
Regarding RSLKHLIRLKIRKCMGRLHLRCPVFMSFLPLPNRLKAYVLY [C7I], the abundance fitness came out at 0.229 ± 0.14.
In the case of RSLKHLSRLKIRKCMGRLHLRCPVFMSFLPLPNRLKAYVLY [C7S], the abundance fitness was -0.357 ± 0.088.
Take RSLKHLKRLKIRKCMGRLHLRCPVFMSFLPLPNRLKAYVLY [C7K]: the abundance fitness was -0.596 ± 0.18.
For RSLKHLFRLKIRKCMGRLHLRCPVFMSFLPLPNRLKAYVLY [C7F], the abundance fitness is 0.041 ± 0.15.
The same measure for RSLKHLVRLKIRKCMGRLHLRCPVFMSFLPLPNRLKAYVLY [C7V]: 0.304 ± 0.05; for RSLKHLQRLKIRKCMGRLHLRCPVFMSFLPLPNRLKAYVLY [C7Q]: -0.529 ± 0.095.
RSLKHLERLKIRKCMGRLHLRCPVFMSFLPLPNRLKAYVLY [C7E]: the abundance fitness is -0.37 ± 0.091.
In the case of RSLKHLPRLKIRKCMGRLHLRCPVFMSFLPLPNRLKAYVLY [C7P], the abundance fitness is -0.577 ± 0.084.
For RSLKRLCRLKIRKCMGRLHLRCPVFMSFLPLPNRLKAYVLY [H5R], the abundance fitness was -0.285 ± 0.054.
RSLKPLCRLKIRKCMGRLHLRCPVFMSFLPLPNRLKAYVLY [H5P]: the abundance fitness is -0.6 ± 0.15.
As to RSLKNLCRLKIRKCMGRLHLRCPVFMSFLPLPNRLKAYVLY [H5N], the abundance fitness was -0.105 ± 0.24.
As for RSLKGLCRLKIRKCMGRLHLRCPVFMSFLPLPNRLKAYVLY [H5G], the abundance fitness is -0.37 ± 0.048.
For the variant RSLKVLCRLKIRKCMGRLHLRCPVFMSFLPLPNRLKAYVLY [H5V], the abundance fitness was -0.94 ± 0.14.
For the variant RSLKQLCRLKIRKCMGRLHLRCPVFMSFLPLPNRLKAYVLY [H5Q], the abundance fitness is -0.296 ± 0.17.
For RSLKSLCRLKIRKCMGRLHLRCPVFMSFLPLPNRLKAYVLY [H5S], the abundance fitness turned out to be 0.069 ± 0.089.
RSLKELCRLKIRKCMGRLHLRCPVFMSFLPLPNRLKAYVLY [H5E]: the abundance fitness was -0.018 ± 0.055.
In the case of RSLKLLCRLKIRKCMGRLHLRCPVFMSFLPLPNRLKAYVLY [H5L], the abundance fitness is -0.184 ± 0.052.
For RSLKDLCRLKIRKCMGRLHLRCPVFMSFLPLPNRLKAYVLY [H5D], the abundance fitness was -0.293 ± 0.13.
Take RSLKMLCRLKIRKCMGRLHLRCPVFMSFLPLPNRLKAYVLY [H5M]: the abundance fitness turned out to be 0.057 ± 0.1.
With RSLKHPCRLKIRKCMGRLHLRCPVFMSFLPLPNRLKAYVLY [L6P], the abundance fitness was -0.493 ± 0.098.
As for RSLKHGCRLKIRKCMGRLHLRCPVFMSFLPLPNRLKAYVLY [L6G], the abundance fitness was -0.297 ± 0.047.
In the case of RSLKHECRLKIRKCMGRLHLRCPVFMSFLPLPNRLKAYVLY [L6E], the abundance fitness worked out at 0.166 ± 0.045.
For RSLKHVCRLKIRKCMGRLHLRCPVFMSFLPLPNRLKAYVLY [L6V], the abundance fitness is -0.183 ± 0.05.
RSLKHDCRLKIRKCMGRLHLRCPVFMSFLPLPNRLKAYVLY [L6D]: the abundance fitness came out at 0.192 ± 0.1.
Take RSLKHTCRLKIRKCMGRLHLRCPVFMSFLPLPNRLKAYVLY [L6T]: the abundance fitness was -0.041 ± 0.13.
Consider RSLKHCCRLKIRKCMGRLHLRCPVFMSFLPLPNRLKAYVLY [L6C], for which the abundance fitness stood at 0.204 ± 0.13.
With RSLKHYCRLKIRKCMGRLHLRCPVFMSFLPLPNRLKAYVLY [L6Y], the abundance fitness worked out at 0.083 ± 0.23.
For RSLKHKCRLKIRKCMGRLHLRCPVFMSFLPLPNRLKAYVLY [L6K] the value was 0.027 ± 0.33; for RSLKHACRLKIRKCMGRLHLRCPVFMSFLPLPNRLKAYVLY [L6A], 0.122 ± 0.052; for RSLKHRCRLKIRKCMGRLHLRCPVFMSFLPLPNRLKAYVLY [L6R], 0.154 ± 0.048.
For RSLKHQCRLKIRKCMGRLHLRCPVFMSFLPLPNRLKAYVLY [L6Q] the value was 0.261 ± 0.1.
For RSLKHHCRLKIRKCMGRLHLRCPVFMSFLPLPNRLKAYVLY [L6H] the value was 0.054 ± 0.075; for RSLKHSCRLKIRKCMGRLHLRCPVFMSFLPLPNRLKAYVLY [L6S], 0.155 ± 0.08; for RSLKHWCRLKIRKCMGRLHLRCPVFMSFLPLPNRLKAYVLY [L6W], 0.394 ± 0.061.

These data come from the Human Domainome abundance scans (Beltran et al. 2025).
